From patent publication EP1803810A1 come the findings set out here.

Test [1] addresses human integrin α5β1 (human) (UniProt P08648). The experiment in a line: flow cytometry on HMVEC-d; competitor mAb SAM-1. For orientation: In flow cytometry, cells or beads pass a laser one at a time.
For test [2], the target named is human integrin α2β1 (human) (UniProt P17301). The experiment in a line: flow cytometry on HMVEC-d; competitor mAb BHA2.1.
A further test has as its target α6β1.α6β4 (human) (UniProt P23229). In words: flow cytometry on HMVEC-d; competitor α6 integrin mAb (GoH3 and/or 439-9B).
Sequence of UniProt P23229 (P23229 24-1130): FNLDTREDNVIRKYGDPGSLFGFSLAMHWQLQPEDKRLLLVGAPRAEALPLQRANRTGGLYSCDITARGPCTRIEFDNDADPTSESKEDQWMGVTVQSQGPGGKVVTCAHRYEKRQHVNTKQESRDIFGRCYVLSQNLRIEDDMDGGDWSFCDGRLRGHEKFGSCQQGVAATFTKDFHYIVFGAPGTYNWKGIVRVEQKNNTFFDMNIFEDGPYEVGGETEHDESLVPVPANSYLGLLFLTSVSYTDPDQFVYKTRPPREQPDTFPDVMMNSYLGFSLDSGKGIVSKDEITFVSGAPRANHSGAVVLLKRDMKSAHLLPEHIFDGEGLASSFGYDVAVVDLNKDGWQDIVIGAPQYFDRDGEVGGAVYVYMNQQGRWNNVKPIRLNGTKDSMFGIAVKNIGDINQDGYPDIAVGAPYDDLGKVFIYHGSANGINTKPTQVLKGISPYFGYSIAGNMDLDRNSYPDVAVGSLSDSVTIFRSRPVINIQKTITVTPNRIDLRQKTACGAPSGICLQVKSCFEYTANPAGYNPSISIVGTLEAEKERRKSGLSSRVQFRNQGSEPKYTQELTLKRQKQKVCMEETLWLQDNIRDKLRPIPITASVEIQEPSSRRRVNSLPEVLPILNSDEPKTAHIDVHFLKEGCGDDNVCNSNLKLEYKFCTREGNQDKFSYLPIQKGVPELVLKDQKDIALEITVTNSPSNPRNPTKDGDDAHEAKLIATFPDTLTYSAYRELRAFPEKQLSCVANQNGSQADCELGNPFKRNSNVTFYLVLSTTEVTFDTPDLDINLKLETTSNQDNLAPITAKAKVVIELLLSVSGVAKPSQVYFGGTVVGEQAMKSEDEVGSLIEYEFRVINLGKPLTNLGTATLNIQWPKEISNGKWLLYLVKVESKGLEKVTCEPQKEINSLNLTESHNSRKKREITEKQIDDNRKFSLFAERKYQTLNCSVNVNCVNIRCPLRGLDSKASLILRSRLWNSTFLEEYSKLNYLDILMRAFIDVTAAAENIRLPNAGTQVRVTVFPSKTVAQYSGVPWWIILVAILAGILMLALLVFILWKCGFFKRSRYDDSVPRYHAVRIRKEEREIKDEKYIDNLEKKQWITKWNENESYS
Test [3] addresses human integrin αvβ3 (human) (UniProt P06756). In words: flow cytometry on HMVEC-d; competitor mAb LM609.
In test [4] the target is human integrin αvβ5 (human) (UniProt P06756). In words: flow cytometry on HMVEC-d; competitor mAb MAB 1961.

Sequence of UniProt P08648 (P08648 42-1049, chain 1 of 2): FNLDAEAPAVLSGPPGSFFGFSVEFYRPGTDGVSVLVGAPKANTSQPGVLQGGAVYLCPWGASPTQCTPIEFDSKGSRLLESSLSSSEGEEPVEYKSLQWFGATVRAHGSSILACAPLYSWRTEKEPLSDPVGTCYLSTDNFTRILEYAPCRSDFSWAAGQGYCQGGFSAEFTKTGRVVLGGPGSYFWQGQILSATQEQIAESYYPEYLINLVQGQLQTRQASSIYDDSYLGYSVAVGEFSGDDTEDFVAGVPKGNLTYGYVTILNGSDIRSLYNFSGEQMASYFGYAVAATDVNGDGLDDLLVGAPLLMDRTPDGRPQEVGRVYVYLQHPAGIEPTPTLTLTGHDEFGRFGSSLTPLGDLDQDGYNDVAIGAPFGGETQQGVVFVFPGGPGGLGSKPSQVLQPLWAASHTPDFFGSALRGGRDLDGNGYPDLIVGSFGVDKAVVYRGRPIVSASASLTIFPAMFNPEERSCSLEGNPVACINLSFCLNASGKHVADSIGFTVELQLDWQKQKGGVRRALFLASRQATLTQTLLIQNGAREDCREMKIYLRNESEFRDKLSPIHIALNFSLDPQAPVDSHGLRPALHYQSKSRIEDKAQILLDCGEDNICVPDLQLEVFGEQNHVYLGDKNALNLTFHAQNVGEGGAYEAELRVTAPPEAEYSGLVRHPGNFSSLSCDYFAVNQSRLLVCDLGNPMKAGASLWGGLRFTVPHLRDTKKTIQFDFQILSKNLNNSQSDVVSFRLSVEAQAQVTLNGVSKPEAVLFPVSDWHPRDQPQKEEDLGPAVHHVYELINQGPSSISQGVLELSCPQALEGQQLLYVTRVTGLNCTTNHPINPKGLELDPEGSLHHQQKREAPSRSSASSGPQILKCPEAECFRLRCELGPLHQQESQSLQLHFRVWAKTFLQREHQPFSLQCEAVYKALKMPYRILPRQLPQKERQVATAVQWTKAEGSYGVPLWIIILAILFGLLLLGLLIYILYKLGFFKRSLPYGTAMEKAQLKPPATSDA
Sequence of UniProt P08648 (P05556 21-798, chain 2 of 2, further chain): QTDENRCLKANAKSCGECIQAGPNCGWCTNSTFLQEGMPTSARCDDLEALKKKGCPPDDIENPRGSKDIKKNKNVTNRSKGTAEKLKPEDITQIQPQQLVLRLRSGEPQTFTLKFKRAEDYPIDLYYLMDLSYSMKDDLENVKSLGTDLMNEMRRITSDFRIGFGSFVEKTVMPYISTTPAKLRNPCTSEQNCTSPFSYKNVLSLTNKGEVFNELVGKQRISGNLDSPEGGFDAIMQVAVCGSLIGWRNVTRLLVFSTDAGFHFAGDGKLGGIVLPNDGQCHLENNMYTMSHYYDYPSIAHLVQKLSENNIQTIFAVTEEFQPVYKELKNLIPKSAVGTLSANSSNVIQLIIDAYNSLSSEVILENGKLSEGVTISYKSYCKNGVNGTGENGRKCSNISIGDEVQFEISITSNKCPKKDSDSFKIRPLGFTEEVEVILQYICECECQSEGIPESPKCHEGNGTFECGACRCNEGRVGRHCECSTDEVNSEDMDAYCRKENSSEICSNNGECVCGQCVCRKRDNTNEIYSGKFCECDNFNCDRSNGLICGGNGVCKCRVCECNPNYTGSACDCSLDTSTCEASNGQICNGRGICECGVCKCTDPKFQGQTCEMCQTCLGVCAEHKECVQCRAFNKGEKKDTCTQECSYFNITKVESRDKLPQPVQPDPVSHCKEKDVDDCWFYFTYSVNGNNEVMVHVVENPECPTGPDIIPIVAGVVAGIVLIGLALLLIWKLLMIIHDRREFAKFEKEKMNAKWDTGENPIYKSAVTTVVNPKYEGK
Sequence of UniProt P17301 (P17301 30-1181, chain 1 of 2): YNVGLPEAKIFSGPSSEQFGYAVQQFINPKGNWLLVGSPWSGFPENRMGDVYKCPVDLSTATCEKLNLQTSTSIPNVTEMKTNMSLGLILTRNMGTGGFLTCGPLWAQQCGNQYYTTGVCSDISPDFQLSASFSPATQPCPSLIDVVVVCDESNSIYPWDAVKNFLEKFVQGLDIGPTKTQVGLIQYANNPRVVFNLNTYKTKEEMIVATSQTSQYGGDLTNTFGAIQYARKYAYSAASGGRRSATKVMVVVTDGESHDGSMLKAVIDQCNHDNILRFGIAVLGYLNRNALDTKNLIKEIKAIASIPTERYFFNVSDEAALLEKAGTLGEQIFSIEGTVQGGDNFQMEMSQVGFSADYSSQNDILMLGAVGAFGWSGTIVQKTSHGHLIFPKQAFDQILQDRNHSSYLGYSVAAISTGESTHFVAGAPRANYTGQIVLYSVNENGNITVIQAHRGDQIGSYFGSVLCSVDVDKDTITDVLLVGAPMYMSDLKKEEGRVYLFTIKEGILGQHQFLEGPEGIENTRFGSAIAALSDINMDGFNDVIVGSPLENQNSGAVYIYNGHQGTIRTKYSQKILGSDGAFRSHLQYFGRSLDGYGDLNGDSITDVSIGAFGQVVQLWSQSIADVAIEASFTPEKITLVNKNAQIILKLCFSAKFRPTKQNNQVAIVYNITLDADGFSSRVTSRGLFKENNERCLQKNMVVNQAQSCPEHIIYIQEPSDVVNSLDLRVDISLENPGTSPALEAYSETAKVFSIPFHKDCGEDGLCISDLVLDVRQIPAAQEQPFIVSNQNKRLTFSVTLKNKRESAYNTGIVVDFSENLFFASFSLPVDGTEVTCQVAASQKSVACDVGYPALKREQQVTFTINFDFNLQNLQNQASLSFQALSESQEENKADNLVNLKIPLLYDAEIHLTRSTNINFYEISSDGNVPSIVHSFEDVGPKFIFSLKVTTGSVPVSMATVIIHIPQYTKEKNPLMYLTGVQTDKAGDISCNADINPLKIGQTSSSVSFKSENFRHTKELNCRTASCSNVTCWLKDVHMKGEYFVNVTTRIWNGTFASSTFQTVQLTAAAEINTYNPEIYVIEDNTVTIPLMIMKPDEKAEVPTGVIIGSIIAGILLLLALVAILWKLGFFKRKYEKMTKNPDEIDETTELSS
Sequence of UniProt P17301 (P05556 21-798, chain 2 of 2, further chain): as the sequence (P05556 21-798, chain 2 of 2, further chain) above

In turn, ADAM-21dis-Fc (Fc fusion) returned a percent inhibition of binding by integrin mAb in test [1] of 54%.
Take ADAM-23dis-Fc (Fc fusion): the percent inhibition of binding by integrin mAb in test [2] was 22%; in the test with α6β1.α6β4 (human), 31%; in test [1], 49%.
For the substance ADAM-22dis-Fc (Fc fusion), the percent inhibition of binding by integrin mAb is 42% in test [3], 32% in the test with α6β1.α6β4 (human) and 36% in test [1].
Turning to ADAM-20dis-Fc (Fc fusion), in test [3], the percent inhibition of binding by integrin mAb worked out at 58%.
Take ADAM-15dis-Fc (Fc fusion): the percent inhibition of binding by integrin mAb in test [3] turned out to be 60%; in test [4], 25%; in test [1], 30%.
